The supplement of paper PMC10598134
± gives the standard deviation.

Test: collision cross section of unmodified peptide (TIMS, N2, iRT-aligned); higher = larger / more extended gas-phase ion
Procedure: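 Unmodified synthetic counterpart peptides (ProteomeTools / JPT), analysed by nanoLC-TIMS-QTOF (dda-PASEF). 1/K0 was aligned run-wise to spiked iRT peptides and converted to CCS in N2 (Mason-Schamp). Values are the mean of 1-3 technical replicates for the most abundant feature at each charge state. The same unmodified peptide is repeated across rows and is averaged.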

Substance	collision cross section (charge state: 2) [Å²]	collision cross section (charge state: 3) [Å²]
ALLQAKASGK	343.27 ± 1.1	435.19 ± 4.7
ALYETELADAR	385.99 ± 0.47	–
ANAIGRGAK	319.32 ± 2.5	–
ANEKTESSSAQQVAVSR	440.94 ± 1.7	497.75 ± 27
ANLEKAQAELVGTADEATR	474.85 ± 3.3	519.38 ± 2.8
APEYLHR	313.96 ± 0.73	–
APIISGVTK	322.45 ± 0.15	–
APPIDRSILPTAPR	416.59 ± 1.1	492.42 ± 3.4
APVGSVVSVPSQSSASSDK	452.28 ± 0.77	–
AQLSQYFDAVK	384.48 ± 1.1	–
AQPQDSRGGSK	349.19 ± 0.54	421.45 ± 6.4
AQPSASLGVGYR	364.53 ± 0.14	–
AQSYAQQLGR	352.59 ± 0.74	–
AQVLAGGRGK	345.66 ± 0.88	–
ASAISIKLGSSK	373.11 ± 0.93	446.31 ± 5.8
ASCLYGQLPK	363.85 ± 0.6	–
ASDTSSETVFGKR	399.16 ± 2.1	477.62 ± 3.6
ASEALLKQLK	367.26 ± 1.1	459.21 ± 3.1
ASNAAVKLAESK	381.6 ± 0.7	452.24 ± 3.2
ASPPLFQSR	339.74 ± 0.58	–
ASTPGAAAQIQEVK	395.93 ± 0.14	–

Substance	collision cross section (charge state: 2) [Å²]	collision cross section (charge state: 3) [Å²]
ATAVVDGAFK	329.06 ± 0.69	–
ATVASSTQKFQDLGVK	459.73 ± 1.9	485.98 ± 5
AVAITQSPSSVR	368.2 ± 0.14	–
AVPSSPAGSAARGR	380.85 ± 0.71	489.36 ± 2
AVSILPLLGHGVPRLPPGR	–	563.87 ± 2.3
AYDATHLVK	353.02 ± 0.48	420.22 ± 1.4
AYGELPEHAK	366.13 ± 0.54	441.2 ± 1.1
AYILNLVK	331.04 ± 1.1	–
AYPLADAHLTK	383.63 ± 0.16	452.45 ± 1.1
CQGGQETQEYR	370.06 ± 0.16	–
CSVLAAANPVYGR	385.24 ± 0.16	–
CYYGSDTAGR	353.22 ± 1.1	–
DAEAAEATAEGALKAEK	458.36 ± 2.4	544.24 ± 2.9
DAIHFYNKSLAEHR	440.43 ± 2.3	501.63 ± 3.9
DASTLQSQKAEGTGDAK	442.88 ± 2.3	495.18 ± 2.5
DDIIENAPTTHTEEYSGEEK	–	551.19 ± 0.23
DDSFLGKLGGTLAR	410.69 ± 1.4	475.25 ± 2.7
DDSNLYINVK	367.7 ± 0.74	–
DESFLGKLGGTLAR	409.59 ± 1.4	475.21 ± 2.7
DFAFYNPRLQGK	408.01 ± 1.3	473.2 ± 2.9
DFDTALKHYDK	391.79 ± 0.64	447.79 ± 3.3

Substance	collision cross section (charge state: 2) [Å²]	collision cross section (charge state: 3) [Å²]
DFSLTSSSQTPGATK	412.17 ± 0.66	461.25 ± 8.8
DHLSDKESK	345.48 ± 0.71	415 ± 3.9
DHSKPISNPSDNK	390.86 ± 0.14	478.96 ± 0.22
DKALPLEAEVAPVK	407.43 ± 3.2	507.63 ± 4.6
DLATVYVDVLK	382.78 ± 0.75	–
DLEEAEEYK	358.42 ± 0.55	–
DLGKFQVATDALK	413.55 ± 3.7	498.11 ± 6.1
DLSTVEALQNLKNLK	472.99 ± 2.9	543.69 ± 1.2
DLTTAGAVTQCYR	396.98 ± 0.16	489.14
DLYEPSHGAK	358.09 ± 0.48	429.53 ± 1.1
DNNNSNNRGSYNR	–	461.19 ± 2.6
DSINFLDHINGKK	–	459.87 ± 3.8
DSLGVSFPEELACK	418.18 ± 0.66	–
DSRGGGGNFGPGPGSNFR	–	474.13 ± 0.75
DSSPTTNSKLSALQR	418.1 ± 2.2	485.64 ± 4.2
DTGEKLTVAENEAETK	436.86 ± 2.7	520.99 ± 1.8
DTPTSAGPNSFNKGK	410.87 ± 2	465.77 ± 5.4
DVFISAAER	340.13 ± 0.68	–
DVNAAIAAIKTK	391.89 ± 2.3	461.97 ± 1.6
DYGNSPLHR	339.65 ± 0.48	430.38 ± 2
DYILEGEPGK	348.93 ± 0.15	–

Substance	collision cross section (charge state: 2) [Å²]	collision cross section (charge state: 3) [Å²]
DYNVTANSK	328.46 ± 2	–
DYQPGITFIVVQK	401.42 ± 0.24	485.74
DYQPGITFIVVQKR	447.74 ± 2	520.02 ± 0.34
DYSAPVNFISAGLKK	443.09 ± 2.3	512.68 ± 2.7
DYSQPTAAATVQDIK	421.28 ± 0.57	–
DYSSGFGGKYGVQADR	432 ± 2.6	489.69 ± 5.9
DYSVTANSK	329.32 ± 0.58	–
DYVSQFEGSALGK	385.54 ± 0.47	–
EEKPAVTAAPK	359.42 ± 0.68	467.02 ± 0.22
EGFSIPVSADGFK	384.97 ± 0.14	–
ELANFDPSRPGPPSGR	–	494.4 ± 1
EPFSGDHSADGFEVTSR	–	491.61 ± 0.86
ESISVSSEQLAQFR	416.66 ± 2.8	–
ETTPSSLAVTQTMATK	434.06 ± 0.13	–
EVVKPVPITSPAVSK	412.92 ± 0.57	534.95 ± 0.86
FDDTNPEKEEAK	396.22 ± 1.8	501.37 ± 2.2
FEGAIYR	317.08 ± 0.15	–
FGDSRGGGGNFGPGPGSNFR	–	494.59 ± 1.9
FGRGTGLTQPSQR	395.55 ± 1.4	470.69 ± 2.1
FGSRGGPGGGFR	358.01 ± 0.11	437.12 ± 3.8
FGTINIVHPKLGSYTK	468.97 ± 3	531.6 ± 4.8
